According to paper PMC6810650 (Cell, 2019):

How the values were obtained:
[1] = target: T1, GST-Ubx5 (S. cerevisiae, UniProt Q06682 1-500); experiment: pull-down
T1 sequence (looked up): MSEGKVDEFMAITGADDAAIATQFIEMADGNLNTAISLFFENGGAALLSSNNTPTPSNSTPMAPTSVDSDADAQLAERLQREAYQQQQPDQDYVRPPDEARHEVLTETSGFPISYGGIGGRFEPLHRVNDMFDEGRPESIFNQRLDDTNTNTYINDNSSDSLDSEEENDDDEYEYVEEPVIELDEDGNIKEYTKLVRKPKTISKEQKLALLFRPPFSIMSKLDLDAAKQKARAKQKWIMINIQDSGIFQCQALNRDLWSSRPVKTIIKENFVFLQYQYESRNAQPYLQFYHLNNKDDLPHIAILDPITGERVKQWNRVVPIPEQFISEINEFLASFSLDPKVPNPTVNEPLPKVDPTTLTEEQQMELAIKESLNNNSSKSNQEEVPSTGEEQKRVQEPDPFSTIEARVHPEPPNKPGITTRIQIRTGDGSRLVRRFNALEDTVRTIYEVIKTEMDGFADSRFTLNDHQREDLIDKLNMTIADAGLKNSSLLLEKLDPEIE

[2] = target: T2, HA-DSK2a (Arabidopsis thaliana, UniProt Q9SII9 1-538); experiment: pull-down
T2 sequence (looked up): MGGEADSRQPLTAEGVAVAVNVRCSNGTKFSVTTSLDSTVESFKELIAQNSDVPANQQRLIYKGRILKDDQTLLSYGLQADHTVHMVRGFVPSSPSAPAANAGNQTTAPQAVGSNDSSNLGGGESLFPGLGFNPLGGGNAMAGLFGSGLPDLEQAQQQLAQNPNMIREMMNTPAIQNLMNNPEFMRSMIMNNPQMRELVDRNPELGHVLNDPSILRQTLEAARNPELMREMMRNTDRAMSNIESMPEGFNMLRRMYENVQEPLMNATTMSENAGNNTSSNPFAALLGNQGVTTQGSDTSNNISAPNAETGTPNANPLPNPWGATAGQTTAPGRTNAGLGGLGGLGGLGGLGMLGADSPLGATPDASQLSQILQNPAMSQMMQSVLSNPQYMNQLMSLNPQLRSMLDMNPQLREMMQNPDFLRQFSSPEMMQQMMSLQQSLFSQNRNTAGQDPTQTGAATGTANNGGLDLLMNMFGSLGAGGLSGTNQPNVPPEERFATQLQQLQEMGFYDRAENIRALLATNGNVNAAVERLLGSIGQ

[3] = target: T3, GST-RPN10 (amino acids 201 to 386) (Arabidopsis thaliana, UniProt P55034 201-386); experiment: pull-down
T3 sequence (looked up): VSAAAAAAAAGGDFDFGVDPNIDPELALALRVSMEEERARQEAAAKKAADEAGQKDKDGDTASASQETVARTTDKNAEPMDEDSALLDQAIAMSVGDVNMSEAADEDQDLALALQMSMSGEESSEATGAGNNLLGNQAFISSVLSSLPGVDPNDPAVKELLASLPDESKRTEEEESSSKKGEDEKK

[4] = target: T4, GST-PUX7 (Arabidopsis thaliana, UniProt Q94JZ8 1-468); experiment: pull-down
T4 sequence (looked up): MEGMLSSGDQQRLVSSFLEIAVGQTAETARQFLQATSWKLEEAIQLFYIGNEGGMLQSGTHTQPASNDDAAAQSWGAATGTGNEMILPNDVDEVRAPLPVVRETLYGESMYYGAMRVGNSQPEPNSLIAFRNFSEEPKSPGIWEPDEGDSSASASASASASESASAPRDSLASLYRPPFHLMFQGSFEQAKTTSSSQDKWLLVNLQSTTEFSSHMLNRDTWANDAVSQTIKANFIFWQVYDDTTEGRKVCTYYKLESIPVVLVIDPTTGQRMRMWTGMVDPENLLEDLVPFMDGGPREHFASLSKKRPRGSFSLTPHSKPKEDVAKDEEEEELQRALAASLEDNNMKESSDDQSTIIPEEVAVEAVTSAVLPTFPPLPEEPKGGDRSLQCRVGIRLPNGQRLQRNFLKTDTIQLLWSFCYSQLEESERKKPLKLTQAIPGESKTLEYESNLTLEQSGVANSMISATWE

[5] = target: T5, GST-PUX9 (Arabidopsis thaliana, UniProt Q4V3D3 1-469); experiment: pull-down
T5 sequence (looked up): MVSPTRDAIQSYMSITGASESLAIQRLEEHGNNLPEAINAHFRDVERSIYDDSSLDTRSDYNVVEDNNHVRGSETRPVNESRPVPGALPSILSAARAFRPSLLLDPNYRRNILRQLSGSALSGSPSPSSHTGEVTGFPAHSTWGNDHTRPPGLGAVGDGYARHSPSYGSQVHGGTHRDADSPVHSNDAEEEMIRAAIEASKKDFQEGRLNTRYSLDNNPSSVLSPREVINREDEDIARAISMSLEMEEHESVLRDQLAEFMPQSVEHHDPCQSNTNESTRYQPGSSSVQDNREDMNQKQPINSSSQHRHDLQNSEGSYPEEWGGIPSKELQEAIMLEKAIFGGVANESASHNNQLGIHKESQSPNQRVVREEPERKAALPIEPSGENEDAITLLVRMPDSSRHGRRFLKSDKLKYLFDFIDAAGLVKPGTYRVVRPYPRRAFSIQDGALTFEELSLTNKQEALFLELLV

[6] = target: T6, GST-PUX8 (Arabidopsis thaliana, UniProt F4JPR7 1-564); experiment: pull-down
T6 sequence (looked up): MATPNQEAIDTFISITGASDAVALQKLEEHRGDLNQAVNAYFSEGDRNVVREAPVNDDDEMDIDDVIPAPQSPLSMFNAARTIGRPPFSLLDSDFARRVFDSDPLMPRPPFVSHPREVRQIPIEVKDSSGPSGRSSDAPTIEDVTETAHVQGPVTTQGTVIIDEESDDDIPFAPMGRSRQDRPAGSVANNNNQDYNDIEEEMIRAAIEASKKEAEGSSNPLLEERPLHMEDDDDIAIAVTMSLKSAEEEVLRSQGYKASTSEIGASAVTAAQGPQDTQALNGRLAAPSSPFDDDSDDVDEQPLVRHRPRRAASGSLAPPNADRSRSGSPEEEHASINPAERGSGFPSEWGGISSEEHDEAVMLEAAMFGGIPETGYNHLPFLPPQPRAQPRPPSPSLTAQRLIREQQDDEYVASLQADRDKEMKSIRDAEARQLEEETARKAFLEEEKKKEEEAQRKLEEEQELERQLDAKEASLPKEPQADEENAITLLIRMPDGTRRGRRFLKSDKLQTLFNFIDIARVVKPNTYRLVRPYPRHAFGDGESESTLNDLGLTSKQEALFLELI

[7] = target: T7, GST-PUX13 (Arabidopsis thaliana, UniProt Q9C5G7 1-525); experiment: pull-down
T7 sequence (looked up): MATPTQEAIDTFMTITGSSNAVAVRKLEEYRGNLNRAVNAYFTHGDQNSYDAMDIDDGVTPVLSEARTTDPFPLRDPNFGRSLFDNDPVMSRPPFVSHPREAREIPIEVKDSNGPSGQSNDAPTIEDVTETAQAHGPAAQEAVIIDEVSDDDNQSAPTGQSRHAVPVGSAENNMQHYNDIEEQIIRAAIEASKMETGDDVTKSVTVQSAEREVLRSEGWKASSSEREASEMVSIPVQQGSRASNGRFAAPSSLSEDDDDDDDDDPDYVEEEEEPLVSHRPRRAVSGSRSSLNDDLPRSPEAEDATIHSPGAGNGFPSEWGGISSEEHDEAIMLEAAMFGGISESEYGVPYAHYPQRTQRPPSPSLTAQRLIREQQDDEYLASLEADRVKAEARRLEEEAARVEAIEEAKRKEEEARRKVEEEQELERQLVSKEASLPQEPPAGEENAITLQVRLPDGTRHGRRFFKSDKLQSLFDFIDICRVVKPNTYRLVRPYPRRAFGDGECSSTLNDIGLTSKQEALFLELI

[8] = target: T8, Arabidopsis DSK2a (pull-down of Figure S1E) (Arabidopsis thaliana, UniProt Q9SII9 1-538); experiment: pull-down
T8 sequence (looked up): T2 sequence (looked up)

[9] = target: T9, 6His-PUX9 (Arabidopsis thaliana, UniProt Q4V3D3 1-469); experiment: ITC
T9 sequence (looked up): T5 sequence (looked up)

[10] = target: T10, 6His-PUX7 (Arabidopsis thaliana, UniProt Q94JZ8 1-468); experiment: ITC
T10 sequence (looked up): T4 sequence (looked up)

[11] = target: T11, 6His-PUX8 (Arabidopsis thaliana, UniProt F4JPR7 1-564); experiment: ITC
T11 sequence (looked up): T6 sequence (looked up)

[12] = target: T12, 6His-PUX13 (Arabidopsis thaliana, UniProt Q9C5G7 1-525); experiment: ITC
T12 sequence (looked up): T7 sequence (looked up)

Measured: binding result

B1: 6His-Atg8 (yeast) (natural protein, S. cerevisiae, UniProt P38182 1-116, looked up)
chain: MKSTFKSEYPFEKRKAESERIADRFKNRIPVICEKAEKSDIPEIDKRKYLVPADLTVGQFVYVIRKRIMLPPEKAIFIFVNDTLPPTAALMSAIYQEHKDKDGFLYVTYSGENTFG
binds: [1]

B2: 6His-ATG8e (natural protein, Arabidopsis thaliana, UniProt Q8S926 1-118, looked up)
chain: MNKGSIFKMDNDFEKRKAEAGRIREKYPDRIPVIVEKAEKSEVPNIDKKKYLVPSDLTVGQFVYVIRKRIKLSAEKAIFIFVDNVLPPTGELMSSVYEDKKDEDGFLYITYSGENTFG
not listed: [1]
binds: all other assays above
